Results from the supplement of paper PMC10567573.

B1: RPAIN (parent)
chain: ISEYEKSLQFDEKCLSIMLAEWEA
B2: GALNT9 (parent)
chain: FTQSGPIVSRATGRCLEVEMSKDA

Variants of: B1
Assay: protein stability index of a GFP-peptide fusion (GPS, HEK-293T) (PSI 1-6); higher = more stable
Conditions: c terminus: a fixed tail appended
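Further: lentivirally expressed fusions sorted by FACS into six bins by GFP to DsRed ratio, PSI derived from sequencing read proportions per bin multiplied by bin number.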

Variant	protein stability index
I1L	1.64
I1Q	2.64
I1N	1.69
I1H	2.15
I1T	3.12
I1V	2.15
I1M	2.42
I1Y	1.48
I1E	2.04
I1F	1.34
I1G	1.86
I1K	2.56
I1P	2.04
I1R	2.41
I1A	2.29
I1S	1.8
I1W	1.26
I1D	2.6
E5L	2.02
E5K	2.81
E5D	1.55
E5C	2.24
E5I	1.75
E3N	3.69
E3Q	2.05

Variant	protein stability index
E3V	2.93
E3R	2.4
E3M	1.82
E3G	1.41
E3S	1.68
E3P	1.42
E3D	1.81
E3A	2.31
E3T	2.91
E3C	1.44
E3H	1.99
E3Y	3.23
E3K	2.4
E3I	1.74
E3L	1.54
E3W	3.76
S2E	1.16
S2D	1.97
S2A	2.2
S2N	2.18
S2T	1.91
S2F	1.7
S2G	1.72
S2W	2.59
S2H	1.5

Variant	protein stability index
S2M	2.15
S2Y	2.54
S2L	2.1
S2Q	1.81
S2C	1.41
S2I	1.79
S2P	2.04
Y4N	2.15
Y4E	2.13
Y4L	2.33
Y4F	1.86
Y4G	1.83
Y4I	2.15
Y4M	2.15
Y4P	1.41
Y4H	2.06
Y4Q	1.8
Y4S	1.77
Y4D	2.12
Y4T	2.5
Y4W	1.92
Y4C	1.75
Y4A	2.48
Y4K	2.1

Variants of: B2
Assay: as above
Conditions: c terminus: a fixed tail appended

Variant	protein stability index
C15I	2.7
C15Q	3.14
C15Y	3.04
C15H	3.37
C15T	2.99
C15S	2.7
C15R	3.86
C15D	3.9
C15L	4.19
C15N	3.75
C15M	2.78
C15F	2.44
C15P	3.11
C15V	3.06
C15K	2.53
T12Y	2.47
T12V	1.51
T12N	2.4
T12Q	1.56
T12D	2.38
T12P	2.05
T12S	1.78
T12M	1.48
T12E	3.19

Variant	protein stability index
T12R	2.04
T12H	1.58
T12K	2.15
T12I	1.89
T12A	3.14
T12L	1.64
E19R	3.07
E19G	2.19
E19I	1.71
E19T	1.22
E19K	2.33
E19Y	1.53
E19L	2.39
E19M	3.89
E19F	2.37
E19V	1.45
E19P	2.57
E19H	1.62
E19S	1.35
E19A	2.49
E19D	2.02
E19N	1.62
M20H	2.65
M20K	2.32

Variant	protein stability index
M20W	1.55
M20E	3.66
M20C	1.89
M20F	1.93
M20N	3.34
M20A	3.61
M20S	3.05
M20D	4.53
M20R	2.73
M20Y	2.46
M20P	3.38
M20I	2.28
M20G	3.21
M20T	3.24
M20L	3.75
M20V	2.18
M20Q	3.23
A11Y	3.67
A11I	1.67
A11R	1.65
A11F	1.06
A11M	1.73
A11D	3.15
A11S	1.77

Variant	protein stability index
A11T	2.24
A11K	1.83
A11G	1.95
A11P	2.31
S9F	2.88
S9C	2.17
S9A	4.78
S9T	1.92
S9E	2.2
S9N	2.06
S9H	1.67
S9D	2.99
S9G	2.76
S9M	2.28
S9P	2.05
S9L	2.43
K22G	2.7
K22I	1.71
K22P	3.13
K22D	3.38
K22N	2.74
K22L	1.95
K22A	3.13
K22Y	2.62

Variant	protein stability index
K22R	1.32
K22Q	2.26
K22C	2.56
K22H	1.76
K22S	2.12
S21R	3.38
S21P	2.55
S21L	1.74
S21N	1.79
S21V	2.05
S21G	1.21
S21I	1.07
S21C	1.47
S21E	2.71
S21Q	1.34
S21D	1.63
S21H	1.76
S21K	1.82
S21T	2.15
S21F	1.86
R14T	1.99
R14P	3.1
R14V	1.71
R14H	2.06

Variant	protein stability index
R14Y	1.82
R14K	1.95
R14S	1.98
R14E	3.03
R14A	2.84
R14N	2.88
R14F	1.61
R14C	1.78
R14L	1.9
R14I	2.78
E17N	3.09
E17S	2.15
E17G	2.09
E17F	3.92
E17C	1.84
E17V	1.24
E17R	5.49
E17P	2.05
E17K	2.41
E17Q	2.94
E17D	1.91
E17Y	3.5
E17A	1.03
I7N	2.73

Variant	protein stability index
I7Q	1.98
I7T	2.36
I7R	2.08
I7S	2.52
I7P	2.78
I7M	1.78
L16N	3.04
L16P	3.02
L16E	3.65
L16I	1.4
L16Y	1.99
L16Q	2.81
L16H	2.81
L16V	2.33
L16A	1.96
L16D	3.53
L16K	2.27
L16T	3.25
L16W	2.35
L16S	1.75
L16G	2.52
L16C	2.08
L16F	2.37
L16R	3.09

Variant	protein stability index
L16M	2.29
D23Q	1.95
D23K	1.84
D23G	1.79
D23S	2.67
D23N	2.42
D23I	1.57
D23E	2.44
D23C	1.51
D23T	1.84
D23V	2.02
D23Y	2.52
D23P	1.92
D23L	2.07
D23H	2.3
A24F	1.34
A24Y	1.75
A24C	2.34
A24D	2.51
A24V	1.68
A24M	1.51
A24R	2.2
A24E	2.64
A24N	2.78

Variant	protein stability index
A24P	3.19
A24I	1.89
A24T	2.3
A24H	2.43
A24L	2.35
V18E	1.01
V18A	1.61
V18T	2.02
V18I	2.32
V18P	2.59
V18Q	2.31
V18Y	1.94
V18H	1.81
V18W	1.74
V18K	3.26
V18N	2.55
V18R	1.94
V18L	1.79
V18M	1.92
V18D	2.53
V18F	2.61
R10S	3.5
R10I	1.53
R10Y	2.44

Variant	protein stability index
R10M	1.48
R10K	2.65
R10A	2.41
R10P	2.49
R10V	2.6
R10E	3.91
R10T	2.5
R10Q	3.02
R10D	3.87
R10C	2.33
R10L	2.77
R10G	2.89
R10H	2.37
R10N	2.01
R10F	1.41
V8S	3.41
V8T	1.42
V8D	3.27
V8C	2.04
V8M	2.38
V8P	2.07
V8G	1.96
V8W	3.04
V8R	1.83

Variant	protein stability index
V8Q	2.25
V8I	2.54
V8N	2.03
V8H	2.58
G13T	2.16
G13D	3.13
G13E	2.76
G13M	1.45
G13P	1.81
G13I	1.14
G13N	2.41
G13F	2.15
G13S	1.76
G13Q	1.55
G13A	1.86
G13H	1.99
G13R	2.6
G13V	1.81
G13Y	4.09
G13K	1.91
